{"source": "patent US20130142802A1", "about": "(published 2013)", "binders": {"B1": {"name": "human scFv clone 6, soluble (scFv)", "scFv": "QSVLTQPPSVSAAPGQKVTISCSGSSSNIGNNYVSWYQQLPGTAPKLLIYDNNKRPSGIPDRFSDSKSGTSATLGITGLQTGDEADYYCGTWDSSLSAVVFGGGTKLTVLGSGGSTITSYNVYYTKLSSSGTEVQLVQSGAEVKKPGSSVKVSCKASGGTFSSYAISWVRQAPGQGLEWMGRIIPILGIANYAQKFQGRVTITADKSTSTAYMELSSLRSEDTAVYYCARDPLLWSYFDYWGQGTLVTVSS", "notes": "Tags are not described; also called scFv-6; Atto-HuMab-06"}, "B2": {"name": "human scFv clone 6, phage-displayed (scFv)", "scFv": "B1 scFv", "notes": "also called scFv-6; Atto-HuMab-06"}, "B3": {"name": "Flag-FGFR2-IIIb expressed on CHO cells (receptor, human)", "chain": "RPSFSLVEDTTLEPEEPPTKYQISQPEVYVAAPGESLEVRCLLKDAAVISWTKDGVHLGPNNRTVLIGEYLQIKGATPRDSGLYACTASRTVDSETWYFMVNVTDAISSGDDEDDTDGAEDFVSENSNNKRAPYWTNTEKMEKRLHAVPAANTVKFRCPAGGNPMPTMRWLKNGKEFKQEHRIGGYKVRNQHWSLIMESVVPSDKGNYTCVVENEYGSINHTYHLDVVERSPHRPILQAGLPANASTVVGGDVEFVCKVYSDAQPHIQWIKHVEKNGSKYGPDGLPYLKVLKHSGINSSNAEVLALFNVTEADAGEYICKVSNYIGQANQSAWLTVLPKQQAPGREKEITASPDYLEIAIYCIGVFLIACMVVTVILCRMKNTTKKPDFSSQPAVHKLTKRIPLRRQVTVSAESSSSMNSNTPLVRITTRLSSTADTPMLAGVSEYELPEDPKWEFPRDKLTLGKPLGEGCFGQVVMAEAVGIDKDKPKEAVTVAVKMLKDDATEKDLSDLVSEMEMMKMIGKHKNIINLLGACTQDGPLYVIVEYASKGNLREYLRARRPPGMEYSYDINRVPEEQMTFKDLVSCTYQLARGMEYLASQKCIHRDLAARNVLVTENNVMKIADFGLARDINNIDYYKKTTNGRLPVKWMAPEALFDRVYTHQSDVWSFGVLMWEIFTLGGSPYPGIPVEELFKLLKEGHRMDKPANCTNELYMMMRDCWHAVPSQRPTFKQLVEDLDRILTLTTNEEYLDLSQPLEQYSPSYPDTRSSCSSGDDSVFSPDPMPYEPCLPQYPHINGSVKT", "notes": "whole, on cells; also called CHO-FGFR2-IIIb; FGFR2-IIIb-expressing CHO cells; not shown: Flag-tag at the N-terminus"}, "B4": {"name": "dcFv-8 (Fc-fusion of human scFv Clone 8) (Fc fusion)", "chain": "QSVLTQPPSVSAAPGQKVTISCSGSSSNIGNNYVSWYQQLPGTAPKLLIYDNNKRPSGIPDRFSGSKSGTSATLAISGLQSEDEADYYCAAWDDSLNGVVFGGGTKLTVLGSGGSTITSYNVYYTKLSSSGTQVQLVQSGAEVKKPGSSVKVSCKASGGTFSSYAISWVRQAPGQGLEWMGRIIPIFGTANYAQKFQGRVTITADESTSTAYMELNSLRSEDTAVYYCARDRWDWNDAFDIWGQGTMVTVSS", "notes": "Bivalent fusion construct to human IgG Fc; also called clone dcFv-8; not shown: human IgG1 Fc of vector pFUSE-hIgG1e2-Fc2(IL2ss) (Invivogen)"}, "B5": {"name": "human scFv clone 8, soluble (scFv)", "scFv": "B4 chain", "notes": "Tags are not described; also called scFv-8; Atto-HuMab-08"}, "B6": {"name": "soluble FGFR2 IIIc-Fc fusion protein (Fc fusion)", "chain": "RPSFSLVEDTTLEPEGAPYWTNTEKMEKRLHAVPAANTVKFRCPAGGNPMPTMRWLKNGKEFKQEHRIGGYKVRNQHWSLIMESVVPSDKGNYTCVVENEYGSINHTYHLDVVERSPHRPILQAGLPANASTVVGGDVEFVCKVYSDAQPHIQWIKHVEKNGSKYGPDGLPYLKVLKAAGVNTTDKEIEVLYIRNVTFEDAGEYTCLAGNSIGISFHSAWLTVLPAPGREKEITASPDYLERSDKTHTCPPCPAPELLGGPSVFLFPPKPKDTLYITREPEVTCVVVDVSHEDPEVKFNWYVDGVEVHNAKTKPREEQYNSTYRVVSVLTVLHQDWLNGKEYKCKVSNKALPAPIEKTISKAKGQPREPQVYTLPPSREEMTKNQVSLTCLVKGFYPSDIAVEWESNGQPENNYKTTPPVLDSDGSFFLYSKLTVDKSRWQQGNVFSCSVMHEALKFHYTQKSLSLSPGK", "notes": "Extracellular domain of human FGFR2 beta (IIIc), aa 1-262, Arg-Ser linker, human IgG1 Fc; signal peptide 1-21 left out; also called FGFR2 beta-ECD; FGFR2c beta-EDC"}}, "key": {"human ovalbumin (OA) [1]": {"biological_target": "human ovalbumin (OA) (human)", "experiment": "ELISA: soluble scFv on coated protein (2 ug/ml)"}, "[2]": {"biological_target": "B6", "experiment": "ELISA: soluble scFv on coated protein (2 ug/ml)"}, "FGFR2 IIIb-Fc [3]": {"biological_target": "T1, FGFR2 IIIb-Fc (human)", "T1 construct": "also called FGFR2IIIb beta-ECD; FGFR2IIIb-hFc", "T1 chain": "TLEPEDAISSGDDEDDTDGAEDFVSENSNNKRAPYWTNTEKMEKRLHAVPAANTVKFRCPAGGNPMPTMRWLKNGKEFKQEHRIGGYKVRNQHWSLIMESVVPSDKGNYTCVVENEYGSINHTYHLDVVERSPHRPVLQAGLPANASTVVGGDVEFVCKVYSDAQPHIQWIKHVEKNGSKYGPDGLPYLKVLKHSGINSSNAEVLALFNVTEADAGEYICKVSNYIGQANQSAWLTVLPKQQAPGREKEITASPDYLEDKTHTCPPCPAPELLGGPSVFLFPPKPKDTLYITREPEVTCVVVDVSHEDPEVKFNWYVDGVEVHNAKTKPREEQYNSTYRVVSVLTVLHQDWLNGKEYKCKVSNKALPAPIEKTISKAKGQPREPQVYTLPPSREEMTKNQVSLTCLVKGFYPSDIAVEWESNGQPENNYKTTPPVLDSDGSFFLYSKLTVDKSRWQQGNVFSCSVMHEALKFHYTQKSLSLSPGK", "experiment": "ELISA: soluble scFv on coated protein (2 ug/ml)"}, "human ferritin (Fer) [4]": {"biological_target": "T2, human ferritin (Fer) (human, UniProt P02794 2-183; P02792 2-175, Natural ferritin is a 24-subunit shell of H and L chains in a tissue-dependent ratio, with an iron core. The letters carry one copy of each subunit.)", "T2 construct": "also called Feritin", "experiment": "phage ELISA on coated protein"}, "human ferritin (Fer) [5]": {"biological_target": "T2, human ferritin (Fer)", "experiment": "phage ELISA on coated protein", "remark": "listed apart in the source"}, "human ovalbumin (OA) [6]": {"biological_target": "human ovalbumin (OA) (human)", "experiment": "phage ELISA on coated protein"}, "[7]": {"biological_target": "T3, 128AA-mFc (128-amino acid loop-3 fragment of FGFR2IIIc fused to mouse Fc) (human)", "T3 chain": "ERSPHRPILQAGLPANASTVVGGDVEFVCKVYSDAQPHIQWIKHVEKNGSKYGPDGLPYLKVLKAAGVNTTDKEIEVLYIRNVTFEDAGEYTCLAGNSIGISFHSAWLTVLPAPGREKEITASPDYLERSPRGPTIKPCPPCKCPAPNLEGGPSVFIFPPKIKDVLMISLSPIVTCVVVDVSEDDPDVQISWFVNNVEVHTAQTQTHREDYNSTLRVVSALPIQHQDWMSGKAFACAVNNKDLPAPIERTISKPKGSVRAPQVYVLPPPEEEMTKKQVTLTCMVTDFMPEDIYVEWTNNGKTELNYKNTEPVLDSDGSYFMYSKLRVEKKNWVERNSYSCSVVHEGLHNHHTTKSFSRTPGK", "experiment": "phage ELISA on coated protein"}, "[8]": {"biological_target": "T4, dcFv-01 (Fc-fusion of human scFv Clone 1) (human)", "T4 construct": "scFv-1 fragment fused to the N-terminus of human IgG1 Fc; bivalent; also called dcFv-1; clone dcFv-1; not shown: human IgG1 Fc of vector pFUSE-hIgG1e2-Fc2(IL2ss) (Invivogen)", "experiment": "immunocytochemical staining of CHO cells transiently expressing FGFR2IIIb"}, "[9]": {"biological_target": "B6", "experiment": "competition ELISA: antibody pre-incubated with FGFR2IIIc-Fc, then added to ligand-coated plate (legend paragraph 175: FGF8; paragraph 640: FGF2); bound receptor detected"}, "[10]": {"biological_target": "B3", "experiment": "immunocytochemical staining of CHO cells transiently expressing FGFR2IIIb"}, "FGFR2 IIIb-Fc [11]": {"biological_target": "T1, FGFR2 IIIb-Fc", "experiment": "ELISA with soluble scFv, plate coated with FGFR2 IIIb Fc fusion (whole extracellular domain)"}, "[12]": {"biological_target": "T4, dcFv-01 (Fc-fusion of human scFv Clone …)", "experiment": "competition ELISA: antibody pre-incubated with FGFR2IIIc-Fc, then added to ligand-coated plate (legend paragraph 175: FGF8; paragraph 640: FGF2); bound receptor detected"}, "FGF8b": {"biological_target": "T5, FGF8b (UniProt P55075-3 23-215)", "T5 construct": "Coated on ELISA plates; also called ligand protein FGF8b", "T5 sequence (looked up)": "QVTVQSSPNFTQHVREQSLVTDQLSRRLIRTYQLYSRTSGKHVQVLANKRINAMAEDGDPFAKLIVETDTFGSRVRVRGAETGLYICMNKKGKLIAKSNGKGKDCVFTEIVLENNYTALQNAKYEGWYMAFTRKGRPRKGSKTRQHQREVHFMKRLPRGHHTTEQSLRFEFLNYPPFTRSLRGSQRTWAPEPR", "experiment": "ELISA: receptor Fc fusion (4 ug/ml) on coated FGF8b, anti-human IgG Fc-HRP"}}, "data": [{"binder": "B1", "values": [{"measurement": "OD (450 nm)", "setting": "human ovalbumin (OA) [1]", "value": 0.015}, {"measurement": "OD (450 nm)", "setting": "[2]", "value": 0.571}, {"measurement": "OD (450 nm)", "setting": "FGFR2 IIIb-Fc [3]", "value": 0.012}]}, {"binder": "B2", "values": [{"measurement": "binding result", "setting": "human ferritin (Fer) [4]", "value": "no binding"}, {"measurement": "OD (450 nm)", "setting": "human ferritin (Fer) [5]", "value": 0.006}, {"measurement": "OD (450 nm)", "setting": "human ovalbumin (OA) [6]", "value": 0.018}, {"measurement": "OD (450 nm)", "setting": "[7]", "value": 0.106}]}, {"binder": "B3", "values": [{"measurement": "binding result", "setting": "[8]", "value": "no binding"}]}, {"binder": "B4", "values": [{"measurement": "IC50 (read off the curve)", "setting": "[9]", "value": "~0.3", "unit": "nM"}, {"measurement": "binding result", "setting": "[10]", "value": "no binding"}]}, {"binder": "B5", "values": [{"measurement": "OD (450 nm)", "setting": "human ovalbumin (OA) [1]", "value": 0.028}, {"measurement": "OD (450 nm)", "setting": "[2]", "value": 0.8}, {"measurement": "OD (450 nm)", "setting": "FGFR2 IIIb-Fc [3]", "value": 0.003}, {"measurement": "binding result", "setting": "FGFR2 IIIb-Fc [11]", "value": "no binding"}, {"measurement": "binding result", "setting": "[10]", "value": "no binding"}]}, {"binder": "B6", "values": [{"measurement": "binding result", "setting": "[12]", "value": "binds"}, {"measurement": "binding result", "setting": "FGF8b", "value": "binds"}]}]}
